target: T1, human CD47 (human, UniProt Q08722 19-139); experiment: SPR as in Example 1
T1 construct: extracellular domain; also called CD47 ECD
T1 sequence (Q08722 19-139 limits assumed): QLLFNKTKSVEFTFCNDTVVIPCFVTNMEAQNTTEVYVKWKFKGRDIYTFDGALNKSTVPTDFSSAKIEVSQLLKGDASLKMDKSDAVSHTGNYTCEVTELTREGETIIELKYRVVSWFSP

Kd	Binder
3460 pM	SIRP-α D1 variant fused to Fc variant, SEQ ID NO: 135 (Fc fusion) EEELQVIQPDKSVLVAAGETATLRCTATSLFPVGPIQWFRGAGPGRELIYNQREGPFPRVTTVSDLTKRNNMDFSIRIGAITPADAGTYYCVKFRKGSPDDVEFKSGAGTELSVRAKPSDKTHTCPPCPAPEAAGAPSVFLFPPKPKDTLMISRTPEVTCVVVDVSHEDPEVKFNWYVDGVEVHNAKTKPREEQYASTYRVVSVLTVLHQDWLNGKEYKCKVSNKALPAPIEKTISKAKGQPREPQVYTLPPSREEMTKNQVSLTCLVKGFYPSDIAVEWESNGQPENNYKTTPPVLDSDGSFFLYSKLTVDKSRWQQGNVFSCSVMHEALHNHYTQKSLSLSPG
890 pM	SIRP-α D1 variant fused to Fc variant, SEQ ID NO: 101 (Fc fusion) EEELQVIQPDKSVLVAAGETATLRCTITSLFPVGPIQWFRGAGPGRELIYNQREGPFPRVTTVSDLTKRNNMDFSIRIGAITPADAGTYYCVKFRKGSPDDVEFKSGAGTELSVRAKPSDKTHTCPPCPAPEAAGAPSVFLFPPKPKDTLMISRTPEVTCVVVDVSHEDPEVKFNWYVDGVEVHNAKTKPREEQYASTYRVVSVLTVLHQDWLNGKEYKCKVSNKALPAPIEKTISKAKGQPREPQVYTLPPSREEMTKNQVSLTCLVKGFYPSDIAVEWESNGQPENNYKTTPPVLDSDGSFFLYSKLTVDKSRWQQGNVFSCSVMHEALHNHYTQKSLSLSPGK
379 pM	SIRP-α D1 variant fused to Fc variant, SEQ ID NO: 102 (Fc fusion) EEELQIIQPDKSVLVAAGETATLRCTITSLFPVGPIQWFRGAGPGRELIYNQREGPFPRVTTVSDLTKRNNMDFSIRIGAITPADAGTYYCVKFRKGSPDDVEFKSGAGTELSVRAKPSDKTHTCPPCPAPEAAGAPSVFLFPPKPKDTLMISRTPEVTCVVVDVSHEDPEVKFNWYVDGVEVHNAKTKPREEQYASTYRVVSVLTVLHQDWLNGKEYKCKVSNKALPAPIEKTISKAKGQPREPQVYTLPPSREEMTKNQVSLTCLVKGFYPSDIAVEWESNGQPENNYKTTPPVLDSDGSFFLYSKLTVDKSRWQQGNVFSCSVMHEALHNHYTQKSLSLSPGK
895 pM	SIRP-α D1 variant fused to Fc variant, SEQ ID NO: 99 (Fc fusion) EEELQVIQPDKSVLVAAGETATLRCTATSLFPVGPIQWFRGAGPGRELIYNQRQGPFPRVTTVSDLTKRNNMDFSIRIGAITPADAGTYYCVKFRKGSPDDVEFKSGAGTELSVRAKPSDKTHTCPPCPAPEAAGAPSVFLFPPKPKDTLMISRTPEVTCVVVDVSHEDPEVKFNWYVDGVEVHNAKTKPREEQYASTYRVVSVLTVLHQDWLNGKEYKCKVSNKALPAPIEKTISKAKGQPREPQVYTLPPSREEMTKNQVSLTCLVKGFYPSDIAVEWESNGQPENNYKTTPPVLDSDGSFFLYSKLTVDKSRWQQGNVFSCSVMHEALHNHYTQKSLSLSPGK
653 pM	SIRP-α D1 variant fused to Fc variant, SEQ ID NO: 110 (Fc fusion) EEELQVIQPDKSVLVAAGETATLRCTITSLFPVGPIQWFRGAGPGRELIYNQREGPFPRVTTVSDLTKRNNMDFSIRIGAITPADAGTYYCVKFRKGSPDDVEFKSGAGTELSVRAKPSVECPPCPAPPVAGPSVFLFPPKPKDTLMISRTPEVTCVVVDVSHEDPEVQFNWYVDGVEVHNAKTKPREEQFASTFRVVSVLTVVHQDWLNGKEYKCKVSNKGLPSSIEKTISKTKGQPREPQVYTLPPSREEMTKNQVSLTCLVKGFYPSDIAVEWESNGQPENNYKTTPPMLDSDGSFFLYSKLTVDKSRWQQGNVFSCSVMHEALHNHYTQKSLSLSPGK
811 pM	SIRP-α D1 variant fused to Fc variant, SEQ ID NO: 106 (Fc fusion) EEELQVIQPDKSVLVAAGETATLRCTATSLFPVGPIQWFRGAGPGRELIYNQRQGPFPRVTTVSDLTKRNNMDFSIRIGNITPADAGTYYCVKFRKGSPDDVEFKSGAGTELSVRAKPSVECPPCPAPPVAGPSVFLFPPKPKDTLMISRTPEVTCVVVDVSHEDPEVQFNWYVDGVEVHNAKTKPREEQFASTFRVVSVLTVVHQDWLNGKEYKCKVSNKGLPSSIEKTISKTKGQPREPQVYTLPPSREEMTKNQVSLTCLVKGFYPSDIAVEWESNGQPENNYKTTPPMLDSDGSFFLYSKLTVDKSRWQQGNVFSCSVMHEALHNHYTQKSLSLSPGK
478 pM	SIRP-α D1 variant fused to Fc variant, SEQ ID NO: 108 (Fc fusion) EEELQVIQPDKSVLVAAGETATLRCTATSLFPVGPIQWFRGAGPGRELIYNQRQGPFPRVTTVSDLTKRNNMDFSIRIGAITPADAGTYYCVKFRKGSPDDVEFKSGAGTELSVRAKPSVECPPCPAPPVAGPSVFLFPPKPKDTLMISRTPEVTCVVVDVSHEDPEVQFNWYVDGVEVHNAKTKPREEQFASTFRVVSVLTVVHQDWLNGKEYKCKVSNKGLPSSIEKTISKTKGQPREPQVYTLPPSREEMTKNQVSLTCLVKGFYPSDIAVEWESNGQPENNYKTTPPMLDSDGSFFLYSKLTVDKSRWQQGNVFSCSVMHEALHNHYTQKSLSLSPGK

target: T1, human CD47; experiment: SPR, 25 C, 1:1 Langmuir fit

Kd	Binder
14.4 pM	SIRP-α D1 variant polypeptide of SEQ ID NO: 78 (receptor, engineered SIRP-α D1 domain) EEELQIIQPDKSVLVAAGETATLRCTITSLFPVGPIQWFRGAGPGRVLIYNQRQGPFPRVTTVSDTTKRNNMDFSIRIGAITPADAGTYYCIKFRKGSPDDVEFKSGAGTELSVRAKPS
217 pM	SIRP-α D1 variant polypeptide of SEQ ID NO: 79 (receptor, engineered SIRP-α D1 domain) EEELQVIQPDKSVLVAAGETATLRCTATSLFPVGPIQWFRGAGPGRELIYNQRQGPFPRVTTVSDLTKRNNMDFSIRIGAITPADAGTYYCVKFRKGSPDDVEFKSGAGTELSVRAKPS
47.2 pM	SIRP-α D1 variant polypeptide of SEQ ID NO: 80 (receptor, engineered SIRP-α D1 domain) EEELQIIQPDKSVLVAAGETATLRCTITSLFPVGPIQWFRGAGPGRVLIYNQREGPFPRVTTVSDTTKRNNMDFSIRIGAITPADAGTYYCIKFRKGSPDDVEFKSGAGTELSVRAKPS
5450 pM	SIRP-α D1 variant polypeptide of SEQ ID NO: 64 (receptor, engineered SIRP-α D1 domain) EEELQVIQPDKSVSVAAGESAILHCTVTSLIPVGPIQWFRGAGPARELIYNQREGPFPRVTTVSESTKRENMDFSISISNITPADAGTYYCVKFRKGSPDTEFKSGAGTELSVRAKPS
251 pM	SIRP-α D1 variant polypeptide of SEQ ID NO: 68 (receptor, engineered SIRP-α D1 domain) EEELQIIQPDKSVSVAAGESAILHCTITSLFPVGPIQWFRGAGPARELIYNQREGPFPRVTTVSESTKRENMDFSISISNITPADAGTYYCVKFRKGSPDTEFKSGAGTELSVRAKPS
470 pM	SIRP-α D1 variant polypeptide of SEQ ID NO: 66 (receptor, engineered SIRP-α D1 domain) EEELQVIQPDKSVSVAAGESAILHCTITSLFPVGPIQWFRGAGPARELIYNQREGPFPRVTTVSESTKRENMDFSISISNITPADAGTYYCVKFRKGSPDTEFKSGAGTELSVRAKPS
2400 pM	SIRP-α D1 variant polypeptide of SEQ ID NO: 69 (receptor, engineered SIRP-α D1 domain) EEELQVIQPDKSVSVAAGESAILHCTITSLIPVGPIQWFRGAGPARELIYNQREGPFPRVTTVSESTKRENMDFSISISNITPADAGTYYCVKFRKGSPDTEFKSGAGTELSVRAKPS
206 pM	SIRP-α D1 variant polypeptide of SEQ ID NO: 67 (receptor, engineered SIRP-α D1 domain) EEELQVIQPDKSVSVAAGESAILHCTITSLFPVGPIQWFRGAGPARELIYNQREGPFPRVTTVSETTKRENMDFSISISNITPADAGTYYCVKFRKGSPDTEFKSGAGTELSVRAKPS
800 pM	SIRP-α D1 variant polypeptide of SEQ ID NO: 65 (receptor, engineered SIRP-α D1 domain) EEELQVIQPDKSVSVAAGESAILHCTVTSLFPVGPIQWFRGAGPARELIYNQREGPFPRVTTVSESTKRENMDFSISISNITPADAGTYYCVKFRKGSPDTEFKSGAGTELSVRAKPS

Source: patent US20200239543A1 (ALX ONCOLOGY, published 2020)
